Results reported in US20170313746A1 (published 2017).
Non-standard residues stand in square brackets, D forms with d. Phe(4-guanidino) = N=C(N)Nc1ccc(C[C@H](N)C(=O)O)cc1

Target: lactate dehydrogenase (LDH) in lysates of NCI-H460 cells (human, UniProt P00338 2-332)
Assay: cell-based or functional assay

Binder	IC50 of LDH activity (LDH activity kit on lysates of treated NCI-H460 cells)
cyclo(PRGPRPVWW[Phe(4-guanidino)][Phe(4-guanidino)]WW[Phe(4-guanidino)][Phe(4-guanidino)]WW) (SMILES CC(C)[C@@H]1NC(=O)[C@@H]2CCCN2C(=O)[C@H](CCCNC(=N)N)NC(=O)[C@@H]2CCCN2C(=O)CNC(=O)[C@H](CCCNC(=N)N)NC(=O)[C@@H]2CCCN2C(=O)[C@H](Cc2c[nH]c3ccccc23)NC(=O)[C@H](Cc2c[nH]c3ccccc23)NC(=O)[C@H](Cc2ccc(NC(=N)N)cc2)NC(=O)[C@H](Cc2ccc(NC(=N)N)cc2)NC(=O)[C@H](Cc2c[nH]c3ccccc23)NC(=O)[C@H](Cc2c[nH]c3ccccc23)NC(=O)[C@H](Cc2ccc(NC(=N)N)cc2)NC(=O)[C@H](Cc2ccc(NC(=N)N)cc2)NC(=O)[C@H](Cc2c[nH]c3ccccc23)NC(=O)[C@H](Cc2c[nH]c3ccccc23)NC1=O) [HILR-030 (cyclo-[Pro-Arg-Gly-Pro-Arg-Pro-Val-Trp-Trp-Gpa-Gpa-Trp-Trp-Gpa-Gpa-Trp-Trp])]	22 µM
PRGPRPVWWRRWWRRWW (head-to-tail cyclic peptide) [HILR-025 (cyclo-[Pro-Arg-Gly-Pro-Arg-Pro-Val-Trp-Trp-Arg-Arg-Trp-Trp-Arg-Arg-Trp-Trp])]	16 µM
